Measurements: PMC3193277

Molecular target: 6xHis-p53 (UniProt P04637 1-393)
Experiment: EMSA

Chain of 6xHis-p53 (P04637 whole entry): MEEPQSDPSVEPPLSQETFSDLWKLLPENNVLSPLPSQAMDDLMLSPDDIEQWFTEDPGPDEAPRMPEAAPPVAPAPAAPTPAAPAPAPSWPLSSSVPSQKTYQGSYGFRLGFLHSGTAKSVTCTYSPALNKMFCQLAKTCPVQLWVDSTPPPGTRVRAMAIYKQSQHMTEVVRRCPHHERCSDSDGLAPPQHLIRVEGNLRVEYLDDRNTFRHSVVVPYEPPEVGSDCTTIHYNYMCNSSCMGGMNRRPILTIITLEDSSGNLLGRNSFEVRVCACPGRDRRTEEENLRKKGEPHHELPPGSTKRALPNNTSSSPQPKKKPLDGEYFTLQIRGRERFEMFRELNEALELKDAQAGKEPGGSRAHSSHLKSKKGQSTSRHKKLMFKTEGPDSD

B1: GADD45 probe (intron 3 p53RE) (dsDNA)
DNA 1: GTAGCTGATATCGAATTCTCGAGCAGAACATGTCTAAGCATGCTGGGCTCGAGAATTCCTGCAGCC
DNA 2: GGCTGCAGGAATTCTCGAGCCCAGCATGCTTAGACATGTTCTGCTCGAGAATTCGATATCAGCTAC
- binding result: binds
